Data published in publication PMC4175280, “Characterization of proanthocyanidin metabolism in pea (Pisum sativum) seeds” (BMC Plant Biology, 2014).

Tests used:
PsLAR = target: T1, PsLAR (Lathyrus oleraceus, UniProt A0A076G360); assay: coupled PsDFR/PsLAR assay, LC-MS of product; assay type: biochemical; conditions: NADPH, pH 6, 40°C
T1 construct: gene LAR
T1 sequence (A0A076G360 1-351): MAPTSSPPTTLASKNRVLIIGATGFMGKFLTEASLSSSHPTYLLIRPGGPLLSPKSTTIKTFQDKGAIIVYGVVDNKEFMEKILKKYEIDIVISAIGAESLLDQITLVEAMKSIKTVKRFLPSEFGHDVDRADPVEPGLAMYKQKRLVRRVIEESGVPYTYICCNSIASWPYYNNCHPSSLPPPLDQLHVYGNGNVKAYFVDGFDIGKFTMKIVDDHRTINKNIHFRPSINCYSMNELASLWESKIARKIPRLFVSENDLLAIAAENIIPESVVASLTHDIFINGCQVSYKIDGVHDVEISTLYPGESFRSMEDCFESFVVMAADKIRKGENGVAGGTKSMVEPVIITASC

[1] = substrate: Oc1cc(O)c2cc(O)c(-c3cc(O)c(O)c(O)c3)[o+]c2c1; assay: HPLC-DAD of cis-flavan-3-ol product, Michaelis-Menten; assay type: biochemical, Lathyrus oleraceus; conditions: 20 mM NADPH, 100 mM Tris-HCl pH 7, 42°C, 20 min
Source text: (§1) HPLC-DAD of cis-flavan-3-ol product, Michaelis-Menten on PsANR

[2] = substrate: Oc1cc(O)c2cc(O)c(-c3ccc(O)c(O)c3)[o+]c2c1; assay: as above; assay type: biochemical, Lathyrus oleraceus; conditions: 20 mM NADPH, 100 mM Tris-HCl pH 7, 42°C, 20 min
Source text: as §1

[3] = substrate: Oc1ccc(-c2[o+]c3cc(O)cc(O)c3cc2O)cc1; assay: as above; assay type: biochemical, Lathyrus oleraceus; conditions: 20 mM NADPH, 100 mM Tris-HCl pH 7, 42°C, 20 min
Source text: as §1

## Oc1cc(O)c2c(c1)O[C@H](c1ccc(O)c(O)c1)[C@@H](O)C2 [(+)-catechin]
PsLAR; substrate made in situ from dihydroquercetin by PsDFR
  coupled PsDFR/PsLAR assay, LC-MS of product: Only co-incubation of PsDFR and PsLAR could synthesize compounds displaying [M + H]^+ ion for CT

## Oc1cc(O)c2c(c1)O[C@H](c1cc(O)c(O)c(O)c1)[C@@H](O)C2 [gallocatechin]
PsLAR; substrate made in situ from dihydromyricetin by PsDFR
  coupled PsDFR/PsLAR assay, LC-MS of product: co-incubation of PsDFR and PsLAR could synthesize compounds displaying [M + H]^+ ion for CT

B1: PsANR (Lathyrus oleraceus) (protein)
chain: MASIKEVGKKKACVIGGTGFVASILIKQLLEKGYAVNTTVRDLDNPKKISHLVALKSLGELNLFKAELTVDGDFDAPIAGCELVFQLATPVNFASQDPENDMIKPAIKGVLNVLKACAKAKEVKRVILTSSAAAVTINELKGEDHVMDETNWSDVEFLNAAKPPTWGYPASKVLAEKAAWEFAEKNDIDLITVIPTLTMGPYLTQDMPSSVGLAMSLITGNDFLVNALKGMQFLSGSISITHVEDICRAHIFVAEKESASGRYICCAQNTCVPELAKFFSKRYPQYKVPTKFEDCPSKAKLIIFFEKLIKEGFGFKYGIGETYAQTIEYLKIKGVLKK
[1]
  Km: 183.6 ± 0.2 µM
  kcat/Km: 4.3 M⁻¹ s⁻¹
[2]
  Km: 37.0 ± 0.2 µM
  kcat/Km: 13.5 M⁻¹ s⁻¹
[3]
  Km: 39.0 ± 0.1 µM
  kcat/Km: 30.7 M⁻¹ s⁻¹
